Where no end group is shown, it is not given here.
Experiments:
SARS-CoV-2 ORF7a = molecular target: T1, SARS-CoV-2 ORF7a (SARS-CoV-2 (Wuhan variant), UniProt P0DTC7 16-96); test: SPR; settings: both partners purified
T1 construct: also called open reading frame 7a; accessory protein ORF7a; not shown: twin strep tag, N-terminal, kept
T1 sequence: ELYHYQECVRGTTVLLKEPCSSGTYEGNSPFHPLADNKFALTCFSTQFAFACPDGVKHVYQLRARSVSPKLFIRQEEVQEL

SARS-CoV-2 ORF8 = molecular target: T2, SARS-CoV-2 ORF8 (SARS-CoV-2 (Wuhan variant), UniProt P0DTC8 16-121); test: negative stain electron microscopy; settings: both partners purified
T2 construct: also called open reading frame 8; accessory protein ORF8; not shown: twin strep tag, N-terminal, kept
T2 sequence (P0DTC8 16-121): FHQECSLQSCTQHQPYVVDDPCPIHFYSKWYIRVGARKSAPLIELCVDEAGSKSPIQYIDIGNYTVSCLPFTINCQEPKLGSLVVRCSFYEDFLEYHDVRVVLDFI

B1: LL-37 (peptide)
peptide: LLGDFFRKSKEKIGKEFKRIVQRIKDFLRNLVPRTES
notes: also called synthetic LL-37; human antimicrobial peptide LL-37; source: synthetic peptide, bought: Invivogen
- Kd (SARS-CoV-2 ORF7a): 138 nM

B2: gold-labeled LL-37 (peptide)
peptide: LLGDFFRKSKEKIGKEFKRIVQRIKDFLRNLVPRTES
modifications: also: directly conjugated with colloidal gold
notes: also called LL-37 directly conjugated with colloidal gold; source: synthetic peptide, bought: Invivogen; conjugated with colloidal gold
- stoichiometry N (SARS-CoV-2 ORF8): 1
